Experimental data taken from the nanobody polyreactivity screen of Harvey et al. (2022).

Assay: yeast display, Sf9 membrane polyspecificity reagent, FACS + sequencing; frameworks hold sequencing errors
Summary of the method: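 Synthetic nanobody libraries on Saccharomyces cerevisiae BJ5465 were galactose-induced for 36–48 hours, stained 1 hour at 4 °C with 10% biotinylated, detergent-solubilized Sf9 membrane reagent and enriched on streptavidin microbeads. FACS then separated cells into low and high (top ~1%) gates by anti-HA (expression) and streptavidin (reagent binding) fluorescence. Genes were colony-PCR amplified, MiSeq 2 × 250 sequenced and CDR-length filtered. A clone's polyreactivity label is that of its gate of origin.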

Sequence	polyreactivity (PSR sort gate)
QVQLVESGGGLVQAGGSLRLSCAASGYIFFGNAMGWYRQAPGKERDLVAAIRWRGTSTYYADSVKGRFTISRDNAKNTVTFLMNSLKPEDSAVYYCAADVVRSNFYGTFLYDYEYWGKGTQVTVSS	low polyreactivity
QVQLVESGGGLVQAGGSLRLSCAASGFTFFIYAMGWYTQAPGKEREFVAAITGSGGSTYYADSEKGRFTISRDNAKNTVYLQMNSLKTEVTAVYYCATGYWGRRRGGWRSGYWGQGTQVTVSS	high polyreactivity
QVQLVESGGGLVQAGGSLRLSCAASGSTFLYYAMGWYRQAPGKERELVAVISWSGVSTYYADSVKGRFTISRDNAKNTVYLQMNSLKPEDTAVYYCNTGNHYIRTYGYWGQGSQVTVSS	low polyreactivity
QEQLQESGGGLVQAGGSLRMSCAASGTIFSEANKGWYRQAPGKERELVATIGQGSTTNYADSVKGRFTISRDNAKNTVYLQMNSLKPEETAVYYCAVVTVDPVGFVYWGQGTQVTVSS	low polyreactivity
QVQLVESGGGLVQAGGSLRLSCAASGSIGVYAMGWYRQSPGKERELVAGISRSGSSTFFADSVKGRFTISRDNAKNTVYLQMNSLKPEDTAVYYCTAYTYNYRQGSEYYYWGQGTQVTVSS	high polyreactivity
QVQLVESGGGLVQAGGSLRLSCAASGSTFSSNAMGWYRQAPGKERELVAAIDRGGSTYYADSVKGRFTISRDNAKNTVYLQMNSLKPEDNAVYYCNAERETYDYWGQGTQVTVSS	low polyreactivity
QVQLVESGGGLVQAGGSLRLSCAASGSIFWGNAMGWYRQAPGKERELVADISGGDTYYADSVKGRFTISRDNAKNTVYLQMNSLKPEDTAVYYCAADVWQYFYPYGYYYWGLGTQVTVSS	high polyreactivity
QVQLVESGGCLVQAGGSLRLSCAASGYIFQWYDMGWYRPAPGKERELVAAISVTTGSTYYADSVKGRFTISRDNAQKTVYLQMNSLKPEDTAVYYCAAVSWYRHDMYYWGHGTQVTVSS	low polyreactivity
QVQLVESGGGLVQAGGSLRLSCAASGRTFYVNTMGWYRQAPGKERELVASITWSDGSTYYADSVKGRFTISRDNAKNTVYLQMNSLKPDDSAVYYCAASGRFIVNAYRSWGRRRYEYWGQGTQVTVSS	high polyreactivity
QVQLVESGGGLVQAGGSLRLSCAASGTNQGVNAMGWYRQAPGKEREFDAAITGRGGNTYYADSVKGRYTISRDNAKNTVYLQLNSLKPDDTAVYYCAARVKDTRYQSMLDYFYWGQGTEVTVSS	high polyreactivity
QVQLVESGGGLVQAGGSLRLSCAASGFTFGSYTMGWYRQAPGKERELVAAITGRGGSTYYADSVKARFTISRDNAKNTVYLQMNSLKPVDTAVYYCAGRRGTTYVGYDYWGQGTQVTVSS	high polyreactivity
QVQLVESGGGLVQAGGSLRLSCAASGFTISYYAMGWYRQAPWKEGELVAAIRKSGATTDYADSVKGRFTISRDNAKNTVYLQMNCMKPEDTAVYYCNAKNDQRSLGFDFWRQGTQVTVSS	high polyreactivity
QVQLVESGGGLVQAGGSLRLSCAASGFTFRRYAMGWYRQAPGKERELVAAISTSGGRTYYADSVKGRFTISRDYAKITVYLQMNSLKPEDSAVYDCNAAGGYRTSPSDYWGQGTQVTVSS	high polyreactivity
QVQLVESGGGLVQAGGSLRLSCAASGFTFAVYVMGWYRQAPGKERELVATISISVGSTYYADSVKGRFTISRDNAKNTVYLQMNSLKPEDTAVYYCNADPPPEYYPDKDNYWGQGTQVTVSS	low polyreactivity
QVQLVESGGGLVQAGGSLRLSCAASGNTFWDNAMGWYRQAPGKERELVAAIRWSTASTHYADSVKGRFTISRDNAKNTVYFPMNSLKPEDTAVYYCAATDYYYYRDKYYGYDNWGQGTQVTVSS	low polyreactivity
QVQLVESGGGLVQAGGSLRLSCAASGRIFNYYDMGWYRQAPGKERELVAAISSGGTTYYADSVKGRFTISRDNAKNTVYLQMNCLKREDTAVYFCASYYTPQRLRSGKFDYWGQGTQVTVST	high polyreactivity

Sequence	polyreactivity (PSR sort gate)
QVQLVESGGGLDQAGGSLRLSCAASGISFIIYVMGWYRQAPGKERELVAAISSTGSTYYADSVKGRFTISRDNAKNTVYLQMNSQKPEDTAVYYCAKRKFTARQRYNYWGQGTQVTVSS	high polyreactivity
QVHLVESGGGLVQAGGSLRLSCAASGSIFALYAMGWYRQAPGKERELVARISYSGGRTYYADSVKGRFTISRDNAKNTVYLQMNSLKPEDTAVYYCATRSFKWSFVGYDYWGQGTQVTVSS	high polyreactivity
QVQLVESGGALLQAGGSLRLSCAASGFIFRYYAMGWYRQAPGKERELVAAISESGASTYYADSVKGRFTISRDNAKNSVYLQMNSLKPEVTAVYYCAAKPRNSGPYYFYDLNYWGQGTQVTVSS	high polyreactivity
QVQLVESGGGLVQAGGSLRLSCAASGRIFRYYAMGWYRQAPGKERELVAAISKTGGSTYYADSVKGRFTISRDNAKNTVYLQMNSLKPEDTAVYYCAAVGRYSYLSSEGDYWGQGTQVTVSS	high polyreactivity
QVQLVESGGGLVQAGGSLRLSCAASGRIFWPYTMGGYRQAPGKETELVAVITYSGGSTYYADSVKGRFTISRDNAKNTVYLQMNSLIPEDTEVYYCNAGIRFYLHAHGYYWGQGTQVTVSS	high polyreactivity
QVQLVESGGGLVQAGGSLRLSCAASGITFYVYAMGWYRQAPGKERELVAAISSGSSTYYSDSVKGRFTISRDNAKNTVYLQMNSLKPEDTAVYYCAARYRKYLSEYWGQGTQVTVSS	high polyreactivity
QVQLVESGGGLVQAGGSLRLSCAASGSTFRGYAMGWYRQAPGKERELVAAIRFSGGRTYYADSVKGRFTISRDNAKNTVYLQMNSLKPEDTAVYYCAKDYRPGWTGTDFYYWGQGTQVTVSS	low polyreactivity
QVQLVESGGGLVQAGGSLRLSCAASGFTFSTYAMGWYRQAPGKESELVAVISGGDSTSYADSVKGRFTISRDNAKNTVYLQMNSLKPEDTAVYYCAADRYGGYYGDTYYTGLFNYWGQGTQVTVSS	high polyreactivity
QVQLVESGGGLVQAGGSLRLSCAASGGIFNINAMGWYRQAPGKERELVASIRGSGGRTYYADSVKGRFTISRDNAKNTVYLQMNSLKPEDTAVYYCNAESYSTWSFGHRYEYDYWGQGTQVTVSS	low polyreactivity
QVQLVESGGGLVQAGGSLRLSCAASGRTFSLYAMGWSRPAPGKERELVAAITRRGGSTYYADSVKGRFTMSRDNAKNTVYLQMNSLKPEDTAVYYCAADSGYPWELDYWGQGTEVTVSS	low polyreactivity
QVQLEESGGGLVQAGGSLRLSCAASGSILRRYAMGWYRQAPGKEREFVAAMSYSGSRTYYADSVKGRFTISRDNAKYTVYLQMYSLKPEDTAVYYCAADSYGSRYEYWGLGTQVTVSS	high polyreactivity
QVQLVESGGGLVQAGGSHRLSCAASGRIFFPYDMGWYRQAPGKDRELVAAITNSGGRTYYADSVKGRFTISRDNAKNTVYLQMNSLKPEDSAVYYCAAEYVSAKWEYGYWGQGTQVTVSS	low polyreactivity
QVQLVESGGGLVQAGGSLRLSCAASGFTFWRYAMGWYRQAPGKERELVAAINWSGGSTNYADSVKGRFTISRDNAKNTVYLQMNSLKPEDTAVYYCAVDPYQNDPSRWYTYPRRGNYWGQGTQVTVSS	high polyreactivity
QVQLVESGGGLVQAGGSLRLSCAASGLIFPSYARGWYRQAPGKERELVAGINSGGSTNYADSVKGRFTISRDNAKNTVYLQMNSLKPEDTAVYYCAKDNNYYWYVSPRDYWGQGTQVTVSS	low polyreactivity
QVQLVESGGGLVPAGGSLRLSCAASGFIFGGYAMGWYRQAPGKERELVADITTSGDSTYYADSVKGRFTISRDNAKNTVYLQMNSLKPEDTAVYYCNAKRSFRWTYGYWGQGTQVTVSS	high polyreactivity
